The results in this text go back to US20240124563A1.

Test [1] concerns the target human MSLN-R3-3 polypeptide (purchased from GL Biochem, Cat. No. 406676) (human). Briefly: ELISA, antibody 1 nM. A general note: In an ELISA, binding on a coated surface is turned into a signal by an enzyme label.
Test [2] has as its target human MSLN-R3-rFc protein (human) (UniProt Q13421). Kind of test: ELISA, antibody 1 nM.
Test [3] deals with monkey MSLN full-length protein on HEK293T cells (monkey). Briefly: FACS, HEK293T-monkey-MSLN cells, antibody 0.0064 nM. In general terms: Flow cytometry measures light scatter and fluorescence of single cells or particles in a stream.
Test [4] concerns the target human MSLN protein endogenously expressed on tumor cells (Hela, OVCAR3) (human) (UniProt Q13421). Kind of test: FACS, OVCAR3 cells, antibody 0.2 nM.
Test [5] deals with human MSLN full-length protein, recombinant, on CHO-K1 or HEK293T cells (human) (UniProt Q13421). Briefly: competitive FACS on CHO-K1-human MSLN-2C8 cells vs Biotin-Tab142; competitor at 0.064 nM.
human MSLN full-length protein, recombinant, on CHO-K1 or HEK293T cells (human), sequence (Q13421 other isoform, or with tags, fused parts or gaps limits assumed): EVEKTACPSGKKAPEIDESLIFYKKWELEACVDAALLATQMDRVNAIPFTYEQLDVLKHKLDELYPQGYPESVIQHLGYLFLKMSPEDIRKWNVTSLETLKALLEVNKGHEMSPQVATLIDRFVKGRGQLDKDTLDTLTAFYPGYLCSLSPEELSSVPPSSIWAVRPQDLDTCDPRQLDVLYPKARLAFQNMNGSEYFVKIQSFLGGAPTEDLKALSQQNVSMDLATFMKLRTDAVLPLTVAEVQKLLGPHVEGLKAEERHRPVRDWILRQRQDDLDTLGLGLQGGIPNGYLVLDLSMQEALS
The target in test [6] is human MSLN protein endogenously expressed on tumor cells (Hela, OVCAR3) (human) (UniProt Q13421). Briefly: FACS, OVCAR3 cells, antibody 0.00128 nM.
human MSLN protein endogenously expressed on tumor cells (Hela, OVCAR3) (human), sequence (Q13421 other isoform, or with tags, fused parts or gaps): as the sequence (Q13421 other isoform, or with tags, fused parts or gaps limits assumed) above, with P14R counted along it
The target in test [7] is human MSLN-R3-rFc protein (human) (UniProt Q13421). Kind of test: ELISA, antibody 100 nM.
Test [8] concerns the target human MSLN full-length protein on transfected cells (CHO-K1-hMSLN clones 2C8, 2D11, 2C5; HEK293T-hMSLN clones B8, 2A4, 2A7) (human) (UniProt Q13421). Kind of test: FACS, CHO-K1-hMSLN-2C8 cells, antibody 0.00128 nM.
Test [9] concerns the target monkey MSLN full-length protein on HEK293T cells (monkey). Kind of test: FACS, HEK293T-monkey-MSLN cells, antibody 20 nM.

human MSLN full-length protein on transfected cells (CHO-K1-hMSLN clones 2C8, 2D11, 2C5; HEK293T-hMSLN clones B8, 2A4, 2A7) (human), sequence (Q13421 other isoform, or with tags, fused parts or gaps limits assumed): as the sequence (Q13421 other isoform, or with tags, fused parts or gaps limits assumed) above
human MSLN-R3-3 polypeptide (purchased from GL Biochem, Cat. No. 406676) (human), sequence (peptide, as listed by the source): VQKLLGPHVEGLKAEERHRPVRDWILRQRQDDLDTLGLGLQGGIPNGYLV

Turning to hIgG1 (antibody), the OD450 nm amounted to 0.06 in [1], 0.09 in test [2] and 0.21 in test [7]. The FACS signal (MFI) in [3] was 85; in [6] it was 75; in test [8] it was 116; in test [9], 84. Further, the MFI in test [4] stood at 106. Besides, in [5], the MFI of Biotin-Tab142 was 23600.
